{"source": "patent US12618845B2", "about": "“Methods and compositions for protein sequencing” (Quantum-Si Incorporated, priority 2018, dated 2026)", "key": {"peptide substrates": {"tested_on": "peptide substrates", "type": "biochemical"}, "[1]": {"tested_on": "amino acid at a terminal position of a polypeptide", "conditions": "amino acid identity at a terminal position of a polypeptide; phospho-Y also at an internal position; cited from earlier work"}}, "note": "Where two headings read alike, the source gives them in different places."}
{"molecule": "NPEPPS: puromycin-sensitive aminopeptidase, SEQ ID NO: 56 (protein, Puromycin-sensitive aminopeptidase) MWLAAAAPSLARRLLFLGPPPPPLLLLVFSRSSRRRLHSLGLAAMPEKRPFERLPADVSPINYSLCLKPDLLDFTFEGKLEAAAQVRQATNQIVMNCADIDIITASYAPEGDEEIHATGFNYQNEDEKVTLSFPSTLQTGTGTLKIDFVGELNDKMKGFYRSKYTTPSGEVRYAAVTQFEATDARRAFPCWDEPAIKATFDISLVVPKDRVALSNMNVIDRKPYPDDENLVEVKFARTPVMSTYLVAFVVGEYDFVETRSKDGVCVRVYTPVGKAEQGKFALEVAAKTLPFYKDYFNVPYPLPKIDLIAIADFAAGAMENWGLVTYRETALLIDPKNSCSSSRQWVALVVGHELAHQWFGNLVTMEWWTHLWLNEGFASWIEYLCVDHCFPEYDIWTQFVSADYTRAQELDALDNSHPIEVSVGHPSEVDEIFDAISYSKGASVIRMLHDYIGDKDFKKGMNMYLTKFQQKNAATEDLWESLENASGKPIAAVMNTWTKQMGFPLIYVEAEQVEDDRLLRLSQKKFCAGGSYVGEDCPQWMVPITISTSEDPNQAKLKILMDKPEMNVVLKNVKPDQWVKLNLGTVGFYRTQYSSAMLESLLPGIRDLSLPPVDRLGLQNDLFSLARAGIISTVEVLKVMEAFVNEPNYTVWSDLSCNLGILSTLLSHTDFYEEIQEFVKDVFSPIGERLGWDPKPGEGHLDALLRGLVLGKLGKAGHKATLEEARRRFKDHVEGKQILSADLRSPVYLTVLKHGDGTTLDIMLKLHKQADMQEEKNRIERVLGATLLPDLIQKVLTFALSEEVRPQDTVSVIGGVAGGSKHGRKAAWKFIKDNWEELYNRYQGGFLISRLIKLSVEGFAVDKMAGEVKAFFESHPAPSAERTIQQCCENILLNAAWLKRDAESIHQYLLQRKASPPTV", "values": [{"measurement": "HPLC Assay Conv", "setting": "peptide substrates; substrate LeuTyr 5 mM, 700 nM enzyme, 25 mM HEPES, 1 mM Mg(OAc)2, 1 mM DTT, pH 7.5, 37° C./1 hr", "value": 5, "unit": "%"}]}
{"molecule": "P. falciparum M1 (protein, listed as Plasmodium falciparum) PKIHYRKDYKPSGFIINQVTLNINIHDQETIVRSVLDMDISKHNVGEDLVFDGVGLKINEISINNKKLVEGEEYTYDNEFLTIFSKFVPKSKFAFSSEVIIHPETNYALTGLYKSKNIIVSQCEATGFRRITFFIDRPDMMAKYDVTVTADKEKYPVLLSNGDKVNEFEIPGGRHGARFNDPPLKPCYLFAVVAGDLKHLSATYITKYTKKKVELYVFSEEKYVSKLQWALECLKKSMAFDEDYFGLEYDLSRLNLVAVSDFNVGAMENKGLNIFNANSLLASKKNSIDFSYARILTVVGHEYFHQYTGNRVTLRDWFQLTLKEGLTVHRENLFSEEMTKTVTTRLSHVDLLRSVQFLEDSSPLSHPIRPESYVSMENFYTTTVYDKGSEVMRMYLTILGEEYYKKGFDIYIKKNDGNTATCEDFNYAMEQAYKMKKADNSANLNQYLLWFSQSGTPHVSFKYNYDAEKKQYSIHVNQYTKPDENQKEKKPLFIPISVGLINPENGKEMISQTTLELTKESDTFVFNNIAVKPIPSLFRGFSAPVYIEDQLTDEERILLLKYDSDAFVRYNSCTNIYMKQILMNYNEFLKAKNEKLESFQLTPVNAQFIDAIKYLLEDPHADAGFKSYIVSLPQDRYIINFVSNLDTDVLADTKEYIYKQIGDKLNDVYYKMFKSLEAKADDLTYFNDESHVDFDQMNMRTLRNTLLSLLSKAQYPNILNEIIEHSKSPYPSNWLTSLSVSAYFDKYFELYDKTYKLSKDDELLLQEWLKTVSRSDRKDIYEILKKLENEVLKDSKNPNDIRAVYLPFTNNLRRFHDISGKGYKLIAEVITKTDKFNPMVATQLCEPFKLWNKLDTKRQELMLNEMNTMLQEPQISNNLKEYLLRLTNK", "values": [{"measurement": "HPLC Assay Conv", "setting": "peptide substrates; substrate MetTyr, 1 mM peptide, 1 mM enzyme, 2.5 mM ZnCl2 25 mM Tris pH 8.0, 30° C./1 hr", "value": 7, "unit": "%"}]}
{"molecule": "VPr pAzF (protein, non-natural residues) MPPITQQATVTAWLPQVDASQITGTISSLESFTNRFYTTTSGAQASDWIASEWQALSASLPNASVKQVSHSGYNQKSVVMTITGSEAPDEWIVIGGHLDSTIGSHTNEQSVAPGADDDASGIAAVTEVIRVLSENNFQPKRSIAFMAYAAEEVGLRGSQDLANQYKSEGKNVVSALQLDMTNYKGSAQDVVFITDYTDSNFTQYLTQLMDEYLPSLTYGFDTCGYACSDHASWHNAGYPAAMPFESKFNDYNPRIHTTQDTLANSDPTGSHAKKFTQLGLAYAIEMGSATGDTPTPGNQ", "values": [{"measurement": "HPLC Assay Conv", "setting": "peptide substrates; substrate […]{LYSN3}NH2 (SEQ ID NO: 107), 200 μM Peptide, 4 μM enzyme, 10 mM MgCl2, 50 mM MOPS pH 8.0, 37° C./1 hr", "value": 96, "unit": "%"}]}
{"molecule": "H. sapiens Fyn SH2 domain: amino acid recognition protein, SEQ ID NO: 22 (protein, listed as Homo sapiens) MGAMDSIQAEEWYFGKLGRKDAERQLLSFGNPRGTFLIRESETTKGAYSLSIRDWDDMKGDHVKHYKIRKLDNGGYYITTRAQFETLQQLVQHYSERAAGLSSRLVVPSHK", "values": [{"measurement": "Binding Pref.", "setting": "[1]", "value": "phospho-Y"}]}
{"molecule": "Agrobacterium tumifaciens ClpS2: amino acid recognition protein, SEQ ID NO: 2 (protein, listed as Agrobacterium tumifaciens) MSDSPVDLKPKPKVKPKLERPKLYKVMLLNDDYTPREFVTVVLKAVFRMSEDTGRRVMMTAHRFGSAVVVVCERDIAETKAKEATDLGKEAGFPLMFTTEPEE", "values": [{"measurement": "Binding Pref.", "setting": "[1]", "value": "F, W, Y"}]}
{"molecule": "Agrobacterium tumifaciens ClpS2 C71S: amino acid recognition protein, SEQ ID NO: 3 (protein, listed as Agrobacterium tumifaciens) MSDSPVDLKPKPKVKPKLERPKLYKVMLLNDDYTPREFVTVVLKAVFRMSEDTGRRVMMTAHRFGSAVVVVSERDIAETKAKEATDLGKEAGFPLMFTTEPEE", "values": [{"measurement": "Binding Pref.", "setting": "[1]", "value": "F, W, Y"}]}
{"molecule": "Saccharomyces cerevisiae GID10: amino acid recognition protein, SEQ ID NO: 31 (protein, listed as Saccharomyces cerevisiae) MTSLNIMGRKFILERAKRNDNIEEIYTSAYVSLPSSTDTRLPHFKAKEEDCDVYEEGTNLVGKNAKYTYRSLGRHLDFLRPGLRFGGSQSSKYTYYTVEVKIDTVNLPLYKDSRSLDPHVTGTFTIKNLTPVLDKVVTLFEGYVINYNQFPLCSLHWPAEETLDPYMAQRESDCSHWKRFGHFGSDNWSLTERNFGQYNHESAEFMNQRYIYLKWKERFLLDDEEQENQMLDDNHHLEGASFEGFYYVCLDQLTGSVEGYYYHPACELFQKLELVPTNCDALNTYSSGFEIA", "values": [{"measurement": "Binding Pref.", "setting": "[1]", "value": "P, M, V"}]}
{"molecule": "V. anguillarum APN (protein) MEEKVWISIGGDATQTALRSGAQSLLPENLINQTSVWVGQVPVSELATLSHEMHENHQRCGGYMVHPSAQSAMSVSAMPLNLNAFSAPEITQQTTVNAWLPSVSAQQITSTITTLTQFKNRFYTTSTGAQASNWIADHWRSLSASLPASKVEQITHSGYNQKSVMLTITGSEKPDEWVVIGGHLDSTLGSRTNESSIAPGADDDASGIAGVTEIIRLLSEQNFRPKRSIAFMAYAAEEVGLRGSQDLANRFKAEGKKVMSVMQLDMTNYQGSREDIVFITDYTDSNFTQYLTQLLDEYLPSLTYGFDTCGYACSDHASWHAVGYPAAMPFESKFNDYNPNIHSPQDTLQNSDPTGFHAVKFTKLGLAYVVEMGNASTPPTPSNQLKNGVPVNGLSASRNSKTWYQFELQEAGNLSIVLSGGSGDADLYVKYQTDADLQQYDCRPYRSGNNETCQFSNAQPGRYSILLHGYNNYSNASLVANAQ", "values": [{"measurement": "HPLC Assay Conv", "setting": "peptide substrates; substrate AAPAAP{LYSN3}NH2 (SEQ ID NO: 98), 1 mM peptide, 2 μM enzyme, 2.5 mM ZnCl2, 25 mM Tris pH 8.0, 30° C./1 hr", "value": 50, "unit": "%"}, {"measurement": "HPLC Assay Conv", "setting": "peptide substrates; substrate KKPKKP{LYSN3}NH2 (SEQ ID NO: 100), 1 mM peptide, 2 μM enzyme, 2.5 mM ZnCl2, 25 mM Tris pH 8.0, 30° C./1 hr", "value": "<5", "unit": "%"}, {"measurement": "HPLC Assay Conv", "setting": "peptide substrates; substrate RRPRRP{LYSN3}NH2 (SEQ ID NO: 96), 1 mM peptide, 2 μM enzyme, 2.5 mM ZnCl2, 25 mM Tris pH 8.0, 30° C./1 hr", "value": ">90", "unit": "%"}]}
{"molecule": "P. horikoshii Tet (protein) MEVRNMVDYELLKKVVEAPGVSGYEFLGIRDVVIEEIKDYVDEVKVDKLGNVIAHKKGEGPKVMIAAHMDQIGLMVTHIEKNGFLRVAPIGGVDPKTLIAQRFKVWIDKGKFIYGVGASVPPHIQKPEDRKKAPDWDQIFIDIGAESKEEAEDMGVKIGTVITWDGRLERLGKHRFVSIAFDDRIAVYTILEVAKQLKDAKADVYFVATVQEEVGLRGARTSAFGIEPDYGFAIDVTIAADIPGTPEHKQVTHLGKGTAIKIMDRSVICHPTIVRWLEELAKKHEIPYQLEILLGGGTDAGAIHLTKAGVPTGALSVPARYIHSNTEVVDERDVDATVELMTKALENIHELKI", "values": [{"measurement": "HPLC Assay Conv", "setting": "peptide substrates; substrate AAPAAP{LYSN3}NH2 (SEQ ID NO: 90), 1 mM peptide, 1 mM enzyme, 2.5 mM ZnCl2, 25 mM Tris pH 8.0, 70° C./1 hr", "value": 100, "unit": "%"}, {"measurement": "HPLC Assay Conv", "setting": "peptide substrates; substrate DDMDDM{LYSN3}NH2 (SEQ ID NO: 72), 1 mM peptide, 1 mM enzyme, 2.5 mM ZnCl2, 25 mM Tris pH 8.0, 70° C./1 hr", "value": 60, "unit": "%"}, {"measurement": "HPLC Assay Conv", "setting": "peptide substrates; substrate FFPFFP{LYSN3}NH2 (SEQ ID NO: 94), 1 mM peptide, 1 mM enzyme, 2.5 mM ZnCl2, 25 mM Tris pH 8.0, 70° C./1 hr", "value": 100, "unit": "%"}, {"measurement": "HPLC Assay Conv", "setting": "peptide substrates; substrate YYPYYP{LYSN3}NH2 (SEQ ID NO: 92), 1 mM peptide, 1 mM enzyme, 2.5 mM ZnCl2, 25 mM Tris pH 8.0, 70° C./1 hr", "value": 100, "unit": "%"}]}
